Measurements reported in the supplement of paper PMC12764529.
± gives the half width of the 95% confidence interval.

assay: folding stability dG unfold from chymotrypsin proteolysis; higher = more stable
Method in brief: (§1)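 Unfolding free energy was derived, per protease or combined, by relating Bayesian-fitted K50 values from sequencing counts to a sequence-predicted unfolded-state K50 and a shared folded-state K50. The underlying digests exposed cysteine-free mini-proteins under 80 residues, in a PA-tagged cDNA display construct, to trypsin and chymotrypsin at 11 threefold-diluted concentrations and to a no-protease condition. A filter kept only designs with AlphaFold2 dimer inter-PAE above 15.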

Sequence	folding stability dG unfold
SAGGMGISTEPEISFERKTLPDGTYVLEIHTTTTTTDSSGVVTTTTSTKTVKFSPDNPEKIKELIEALSAGG [r13_412_JUSTAS]	2.51 ± 0.058 kcal/mol
SAGKIEITVKPDGTVIIKVTVEVDGKKLELTIEVPPEMTIEEIIEKLKELAEELGVEKVEVEIVPLPPSAGG [r19_31_TrROS_Hall]	2.9 ± 0.45 kcal/mol
SAKYYFITVEIYMRTGGGPRKMDITVMIPPEEMPPEDVKEIAKEIADWLAEHHPGFEVKVTIIPPDDMKSAG [r14_723_TrROS]	4.07 ± 0.16 kcal/mol
SAGMETIEVPLPVEEIKEALDAGLSPEEIARLLAEETGEEVEIEVGGRKITITRNEDGELIVRIEVKPDSAG [r5_343_TrROS_Hall]	2.22 ± 0.091 kcal/mol
SAGGSAGGIKPGETVLIVFKDKPEILVFPPGMSEEERKAFPGAKFILVKVEKPELTEEELKALESAGGSAGG [r6_830_TrROS_Hall]	-0.275 ± 0.18 kcal/mol
SAGGSAGGSAGGKVTVTPDGRLVIEKPKVTVEPVEVEEVEVELELKLSPEELEELLKKLSAGGSAGGSAGGS [r10_1096_TrROS_Hall]	0.745 ± 0.044 kcal/mol
SAGGSAGGSEKTIKITIKVKVKKKVTVKNKNGEKKTFEFEEKTYTLTTIKFDSKEDALKALKKSAGGSAGGS [r12_452_TrROS_Hall]	2.48 ± 0.073 kcal/mol
SAGGKLKIKIGDKEYTVESVEIIEERPLPGGGPVYLIRLKFKDGPALIEIPPNIPSSISNNGTLVAGSAGGS [r16_638_TrMRF]	1.95 ± 0.058 kcal/mol
SAGGSAGGSAMKIEIEVDPKTNVIYIRVNGLVYRFTKSEDGYIYIEVYDKNGKLIETFRLKLSAGGSAGGSA [r18_333_TrROS_Hall]	4.83 ± 0.1 kcal/mol
SAGGMGFEKVGTFKLEDDVIVEIYKGPEKKLVAKVYFPKTGKVIEDPGHPDESIEELIERIKAIAEEESAGG [r13_624_TrMRF]	4.32 ± 0.07 kcal/mol
SAGGSAGGSAGNWKIKNIEPVRLPNNVHIMKFQIPGRSLIFVFDPKNGQKRWIPLKDIKPSAGGSAGGSAGG [r17_286_TrROS]	-0.0752 ± 0.14 kcal/mol
SAPFTATETVVTEEEDPATGLTRIPVEMTVDDHPVTGEGVRDPADPSRVSFSITFPDSDLTLTGEEPLPSAG [r14_178_JUSTAS]	-0.0428 ± 0.11 kcal/mol
SAGGSGKVIEIPIELPEDKTITLRLDPETGKAVVEAEENVPLEKVIEAAKKIFEENGFELNGLDISSAGGSA [r2_497_TrMRF]	0.725 ± 0.092 kcal/mol
SAGGSPSTVVPTLLTLEIVKKDEKGNETSETIPVLVEDSPEEARERLIEEIEKKYGAEVVKVTVKPESAGGS [r16_511_JUSTAS]	-1.22 ± 0.27 kcal/mol
SAGGSAGGSAGGLVEQAVRAIREAKKAGLKEVVIYLSEEQKEAVKEAAEKEGLKVKIVPESAGGSAGGSAGG [r11_371_TrROS_Hall]	0.814 ± 0.021 kcal/mol
SAKFRPVEIPFEIKLEEKDPEDGKKEEREFDIKVKIMVFPDNGMVFISIEFIELGRPITIMLPPGAPIISAG [r14_587_TrROS]	3.37 ± 0.092 kcal/mol
SAIKLPDGFEIKEVEFTPDGNVTIKIEVKKYSFMIYNPDNGQIQHIPPGKEQEITMPPNEPMRIWVIKPSAG [r14_385_TrROS]	1.58 ± 0.26 kcal/mol
SAGGSAGGSAGGKKPVKITEIHRNPGPNWIRIRIPGNGRPIPIPVPPGKKLTLEDALDFSAGGSAGGSAGGS [r10_844_TrROS]	-0.0211 ± 0.29 kcal/mol
SAGGNNIYVHIQFKPKEQKMERTPDNGKWDMEYKWEIDITIYYPKGMSPEQAERLVNELREIFPGIKSAGGS [r8_306_TrROS]	2.54 ± 0.047 kcal/mol
SAGGSAGGMVKVLVNPDGGATFIFNKDGSTSTIPVPYTTLEDVKAAVEALAKEYGIEVEEIVPASAGGSAGG [r6_254_JUSTAS]	1.38 ± 0.12 kcal/mol
SAGGKMVKIEITLSPEEIEKIKEKLEEETGLEVEIKVEKNENGEVKLIITFKSEEAAKKALEKLGIESAGGS [r16_172_TrROS_Hall]	3.7 ± 0.15 kcal/mol

Sequence	folding stability dG unfold
SAGGSAGGTFEFFFPDGLYFTVEFRIVEMHPNPGNGQMHMRMEATIKIIPLPPPPPPPKDPGDKSAGGSAGG [r6_939_TrROS]	4.3 ± 0.12 kcal/mol
SGMSMAKDAKPIYIEYRDPNGKSYRVTEVKVNEDGTLTITIEYPDSIKTYTLPPNANYPLSSSLILSTVESA [r9_993_JUSTAS]	1.43 ± 0.13 kcal/mol
SAGALEETTLPLPRPESLPDVSPEVLAALILALLSAVGVTVEVLSSDPANPVTAMVATRDGRVVLRALASAG [r5_80_JUSTAS]	2.34 ± 0.051 kcal/mol
SAGGSAGGSAGSMTSISVDVPVPGKNVVTVTVTLPPNTTTVTITVEPLPNGELKVTVETSSAGGSAGGSAGG [r11_657_JUSTAS]	2.5 ± 0.061 kcal/mol
SAGGSPLLVLHIRLRRPGEEREIVIPSDLIEDMPLEEIEEILRALPWIDEAEIELEEFPPLRPDELSAGGSA [r2_282_TrMRF]	1.98 ± 0.11 kcal/mol
SAGGSAGGSAGGMKKGQKFKPVKKVKLRFKVKVKVKVGGKEYEFEAEVELEVEFYVLEDSAGGSAGGSAGGS [r10_758_TrROS_Hall]	4.41 ± 0.17 kcal/mol
MRLYLVKVEIRREEVDPETGEVREEKLELTVLVREEDEEALEKAEELARKLAEEEGIKEVKVEVVELPAEES [r1_346_TrROS_Hall]	2.62 ± 0.079 kcal/mol
ERDLIVIAGDDLTPEQLRELLEELGFRPEDAEIFREGDALLIVLPDAVILVVRPPPLPVLSEDDPELLEEAS [r1_57_TrMRF]	3.28 ± 0.23 kcal/mol
SAGGSAGGSAMKILSVTEEVLPNGTRVVRVTVKLPTPKTREIVVSPEVVEAGRLDEVVEELLSAGGSAGGSA [r18_129_JUSTAS]	1.82 ± 0.031 kcal/mol
SAGMKTKTIEETITFTFPPGNPPDLEEIKEKLKSKGVKVLKVEMFEPPGDYYVVTAKVVKELEPSELLSSAG [r5_167_JUSTAS]	2.27 ± 0.039 kcal/mol
SAGGSAGGSAGMRVVEVYRLPDGSYRIRFPDGTEVEVSPEELEEVARRLGADEVRVRPELSAGGSAGGSAGG [r11_312_JUSTAS]	4.201 ± 0.041 kcal/mol
SAGGMLTYTTEYDPRGVLTVREYDPSTSKPISTHIIELGPEPVPPPVPGFPQVTPSGELRLVEDPAGPSAGG [r13_9_JUSTAS]	-0.0943 ± 0.33 kcal/mol
SAGGSAGGSAWGWISFNFEFLMFNPDGMFMPFRMQIDIRVEVKPEPKPKPKPKRDPNGKWKSAGGSAGGSAG [r3_252_TrROS]	2.8 ± 0.082 kcal/mol
SAGGSAGGSAWRLYIGGQKIEIPPGGPVKLERHKNGWVKIEIKMPGGRKKEFTIPIPPGATSAGGSAGGSAG [r3_207_TrROS]	1.76 ± 0.17 kcal/mol
SMFRPFPLPDGRPAYDFIIPGLELASSFFPETGRPVLVLRPGGRLGAAPLFAADLDVLFSRPPLVAVEPDSA [r9_205_TrMRF]	1.37 ± 0.17 kcal/mol
SAGGSAGGSAGGSPDGWKFKMEMFTVKVPGAKITIPDGKSITLPPGKEVTIMIMTYVPPSAGGSAGGSAGGS [r4_26_TrROS]	3.81 ± 0.086 kcal/mol
SAGGMLVEARPVLRLTLVSPDGTPREFELPFTVPFSPENPEALLEEAEAIARAIAEATGAEAEIEIEPSAGG [r13_853_TrMRF]	0.017 ± 0.23 kcal/mol
SAGGSAMSITISDISSVKNLTITETTPDGTPVTVTVNATTGSGPPTLTFTATTPGTGATTTTTTAFSAGGSA [r15_1006_JUSTAS]	-0.299 ± 0.099 kcal/mol
SAGGMTVSVTADGSSYTATVKLPDGTTLTVPFTSLEELATQVREEYEKAFPDVPLERLVLEDISPTAPSAGG [r13_887_JUSTAS]	3.344 ± 0.021 kcal/mol
SAGGSAGGSKPEPVKPVKLKVKLPGGEYEVEAVELPKGVVLVRNPADNSLAVITPDRLVVLPLSAGGSAGGS [r12_737_TrMRF]	0.0823 ± 0.14 kcal/mol
SAGGSAMLVFKITIKNPETNETIELEIEAETLEEAKEAIEKLIAELTGKEPTEIKIEVVEIKEEDLSAGGSA [r15_670_TrROS_Hall]	4.47 ± 0.3 kcal/mol

assay: folding stability dG unfold from trypsin proteolysis; higher = more stable
Method in brief: as §1

Sequence	folding stability dG unfold
SAGGMGISTEPEISFERKTLPDGTYVLEIHTTTTTTDSSGVVTTTTSTKTVKFSPDNPEKIKELIEALSAGG [r13_412_JUSTAS]	2.67 ± 0.098 kcal/mol
SAGKIEITVKPDGTVIIKVTVEVDGKKLELTIEVPPEMTIEEIIEKLKELAEELGVEKVEVEIVPLPPSAGG [r19_31_TrROS_Hall]	3.9 ± 0.85 kcal/mol
SAKYYFITVEIYMRTGGGPRKMDITVMIPPEEMPPEDVKEIAKEIADWLAEHHPGFEVKVTIIPPDDMKSAG [r14_723_TrROS]	2.39 ± 0.092 kcal/mol
SAGMETIEVPLPVEEIKEALDAGLSPEEIARLLAEETGEEVEIEVGGRKITITRNEDGELIVRIEVKPDSAG [r5_343_TrROS_Hall]	2.51 ± 0.085 kcal/mol
SAGGSAGGIKPGETVLIVFKDKPEILVFPPGMSEEERKAFPGAKFILVKVEKPELTEEELKALESAGGSAGG [r6_830_TrROS_Hall]	-0.623 ± 0.13 kcal/mol
SAGGSAGGSAGGKVTVTPDGRLVIEKPKVTVEPVEVEEVEVELELKLSPEELEELLKKLSAGGSAGGSAGGS [r10_1096_TrROS_Hall]	0.51 ± 0.17 kcal/mol
SAGGSAGGSEKTIKITIKVKVKKKVTVKNKNGEKKTFEFEEKTYTLTTIKFDSKEDALKALKKSAGGSAGGS [r12_452_TrROS_Hall]	1.35 ± 0.044 kcal/mol
SAGGKLKIKIGDKEYTVESVEIIEERPLPGGGPVYLIRLKFKDGPALIEIPPNIPSSISNNGTLVAGSAGGS [r16_638_TrMRF]	1.36 ± 0.04 kcal/mol
SAGGSAGGSAMKIEIEVDPKTNVIYIRVNGLVYRFTKSEDGYIYIEVYDKNGKLIETFRLKLSAGGSAGGSA [r18_333_TrROS_Hall]	3.52 ± 0.13 kcal/mol
SAGGMGFEKVGTFKLEDDVIVEIYKGPEKKLVAKVYFPKTGKVIEDPGHPDESIEELIERIKAIAEEESAGG [r13_624_TrMRF]	4.48 ± 0.39 kcal/mol
SAGGSAGGSAGNWKIKNIEPVRLPNNVHIMKFQIPGRSLIFVFDPKNGQKRWIPLKDIKPSAGGSAGGSAGG [r17_286_TrROS]	-0.301 ± 0.25 kcal/mol
SAPFTATETVVTEEEDPATGLTRIPVEMTVDDHPVTGEGVRDPADPSRVSFSITFPDSDLTLTGEEPLPSAG [r14_178_JUSTAS]	0.491 ± 0.036 kcal/mol
SAGGSGKVIEIPIELPEDKTITLRLDPETGKAVVEAEENVPLEKVIEAAKKIFEENGFELNGLDISSAGGSA [r2_497_TrMRF]	0.788 ± 0.032 kcal/mol
SAGGSPSTVVPTLLTLEIVKKDEKGNETSETIPVLVEDSPEEARERLIEEIEKKYGAEVVKVTVKPESAGGS [r16_511_JUSTAS]	-0.576 ± 0.07 kcal/mol
SAGGSAGGSAGGLVEQAVRAIREAKKAGLKEVVIYLSEEQKEAVKEAAEKEGLKVKIVPESAGGSAGGSAGG [r11_371_TrROS_Hall]	0.244 ± 0.048 kcal/mol
SAKFRPVEIPFEIKLEEKDPEDGKKEEREFDIKVKIMVFPDNGMVFISIEFIELGRPITIMLPPGAPIISAG [r14_587_TrROS]	2.61 ± 0.17 kcal/mol
SAIKLPDGFEIKEVEFTPDGNVTIKIEVKKYSFMIYNPDNGQIQHIPPGKEQEITMPPNEPMRIWVIKPSAG [r14_385_TrROS]	1.45 ± 0.13 kcal/mol
SAGGSAGGSAGGKKPVKITEIHRNPGPNWIRIRIPGNGRPIPIPVPPGKKLTLEDALDFSAGGSAGGSAGGS [r10_844_TrROS]	-0.648 ± 0.38 kcal/mol
SAGGNNIYVHIQFKPKEQKMERTPDNGKWDMEYKWEIDITIYYPKGMSPEQAERLVNELREIFPGIKSAGGS [r8_306_TrROS]	1.12 ± 0.072 kcal/mol
SAGGSAGGMVKVLVNPDGGATFIFNKDGSTSTIPVPYTTLEDVKAAVEALAKEYGIEVEEIVPASAGGSAGG [r6_254_JUSTAS]	0.395 ± 0.085 kcal/mol
SAGGKMVKIEITLSPEEIEKIKEKLEEETGLEVEIKVEKNENGEVKLIITFKSEEAAKKALEKLGIESAGGS [r16_172_TrROS_Hall]	2.63 ± 0.16 kcal/mol
